Measurements published in a protein production outcome set (Wang et al. 2014).

Assay: label from the status in PepcDB records

Sequence	protein production
MIDVLVQLKSEELILKQRVITAVVALIIFIPIVFLGGTLIEIAALALAVVAMSEVLIMKRILLVTPEAIISILGTLFLVAPKSWMHDLPSQINTPFVSLIFAIALMVRVVFSKNRFNFDDAGVLTLTMLYIGFGFNMFVQARTVGLGMLMYLLLTVWSTDSGAYLVGRKIGKTKLAPQISPNKTWEGSIGGTIVAVIVGIIFSVTGLIHYGILATILMTLFLSIAGQLGDLVESSLKRYYGVKDSGRILPGHGGILDRFDSLLLVLPMAYLLGLL	failed
MGFDFGTVLVFAVVAVGFALGGIAASRALGPKWPNPEKASIYECGERPVGVAWFNFNPRFYLVALVFLVFEVDIALTFPVVAVFKGWVAQGPGMAWVAFFELLVFTGILVVGLAWAWAHGDLEWIKTLGAPSEEAPARAEPRRAA	failed
MPRLPRPPGSSTLRPGAVALGRPDPGPDLNSPEGLIRAARDWLGAGDDQRARLALDRALALRPRAAEALLLRGLVDQRRGDLAAAAEWFRRAIRARKDFADAHLNLGSCLIGLGQTEEALRQFGRAVALAPGMALAHLNLAQALLDQGDLGRARSAIDRARALAPDALPILLARARILAAQEDYEAAGAAWEDCVARAPGDVLVLNDAANFLLEDNRVEDSLALYRRAVALAPTSQEVRKNLIRALMTTGALDEAEAEAVGWLGTQGEDPRFRRLLGDVLVRAGRFPEARSAYVAAWDALPEDDNIPLGLTATGKMKSGEALGDRILERWTAQGAAGVVSADIAYAAGKVLDDRQDYDGAFAAFAQANRLKAADHPFDADAHDRFVEAVSTVFTPALFERFAGLGSPSETPVLVVGLPRSGTTLVEQIIASHPQAAGAGELTHVSRFEHSLPWRVGEAGRRGYPACVAGLDGAILDRFTAHYLHELTRIGPKARRVVDKLPNNFLRLGLFALAFPKARIIHCRRDLVDTCLSLYFQSFAGGHEYRHDLVSLGRYARAYLAMMAHWRRVLPLPMLEVDYADVVADQEKASRTMLEFLGLAWDEVVLRFHKREATVATASRWQVRQPIYATSVARWRRYEQHLSPLLLSLEGKKPSKG	failed
MITVNFLILLLGLVFLVKGSDYFVKSASTIAKKLGVSEFVIGLTLVAIGTSIPELASSIAASIQQASGIVIGNVVGSNIANVGLIVGVAALLSPMKTEIDMLKRDGYIMLFSAVLFFVFAFNRELSMLEAGLFVLLYIAYVFFLFEEAEKYEGKLHFKEFITYFFKFKYINSAMQKLNGNRNRNSDSDRNSDSGNGNERLEGGFAKDIFTLVLSCAAIVIGAKYFVEESIFFAELLGIPDTVIGTTLVAVGTSLPELVVTVSAARQGYGSIALGNVIGSNITNIFLILGLSGLFYPLSVAEMSLFFTTPVMIAISLILLIFISTGWEIKRWEGVVLMMFYVAFLVVLFYI	failed
MDHQFGYGVEVTGLSPSVTHNDLIDFFSFSGTIQDIDIVRSGEQACTAYVMFKDSYSQETAVLLTGATILDQRVCITRWGQHHEEFDFWNATSRGFEDESDSQHYAQRSEFNAGEAVTKAQEVVKIMLATGFVLGKDALSKAKAFDESHGVSAAAVARVSQLEQRIGLTDKIFTGLEAVRMTDQRYHVSDTAKSAVFATGRTAAAAATSVVNSSYFSSGALWLSGALERAAKAASDLGTRGSRQ	failed
MKTINVITLVLLIVGGLNWGLVGLFQFDLVAALFGGQDALLSRVVYTLVGISALRQLVPLFRNNHDTAEHHTSPHVRNNP	failed
MTTIDIIILIIIGAGVVAGFMKGFIRQLASILGLVVGLLAAKALYATLAEKLCPAVTDSMTVAQVLAFIVIWIAVPLIFTLVASLLTKAMEAISLGWLNRWLGSGLGALKFLLLTSLVICVIEFIDSDNKLISATKKSESLLYYPMETFAGIFFPAAKNITQQYILDNKDATRRTQ	failed
MSLMDYFAIHVVPKLYRGKGAFHPAETGKLTETVSCVREYDVNIFFIRKGNTLIAIDSGYKNHHALLPGCKKIEIDPKAVQALFLTHADPDHAGGLDIRCENCFINAEIYLGEIEENYLTNTIYRKKIGPFGLKNSVKIKDNYHLLKDGQSVSVGDLTIQPFLVPGHTLGHLMYLIDNELLFTGDSIALNQEGGWCFFDLFNYNSEMNIKSLKTLKEKLDLNRIKYVFTSHNGFTDKAKEAFAHVDVIPKWNEKGFIFDKTAPYDCFAD	failed
MSLAILTTAYAKIIGLDFSYRKVSTLPIFTKKEDVILSSSHVQTIIYDPSFIADQNTFYLANPAVVIDYFPSKSHRSGIKFSLETFLAMYYKNIAADALADKDLNKSFLYANKAYQLDTDNIETINLLAVIHRRSGDLQTAEAIYKTGMDKGQTNIALLSNYIMLLKSQRRMDEVNTLQDKLNQLDDPDPYQWLGEAYTAKNVGNIKQAEIYFKKALSKAPYLNQAYMGLYKIYIKQNKLKKAQTMLVKALEWTYELDERKLYKYKLYNIEHNIAAIN	failed
DAPQGAVIILPGDAESPDWPDTVGPLRRKFPDVGWSSLSITLPDAQDNTLLPREPDAAAGDANAAKPEETPKDAAAKAPDPAAEAEALAAVATAKAAADEERNKAQAELIFARIESAISFAQQNKARNIVLLGHSSGAYWAARFLNERPSPAVQKLVMVAA	failed
MNKTELIKNVAQNAEISQKEATVVVQTVVESITNTLAAGEKVQLIGFGTFEVRERAARTGRNPQTGEEMQIAASKVPAFKAGKELKEAVK	not failed
MLARAALILLFFGLLGDSGAGQGRDGNALFDRGRYVAAAETYRAGLDALDDTTGSVYTGLQNNLGLALHRQERLGAARAALRKARRAATTEAERVRVLFNAATVAAEMNDRTKALDRYRTVLLLDPTHEAARFNYEYLKRQAGGGAGSDPPTLEPSPFAQKLKERADALVARTQYTTAAALLRDGMQKDSTVRAYRDFVTRIEEIAQIARSDP	failed
MSGGQQERHVLILNTVGGRRAIALEAAAYSLGRDESNAIVIDFETVSRQHAILLRVPVPGTTSYRYRLVDGNANGKPSTNGTFVNGKRISSHELQHGDVILFGRKAKASYLLLSMADTEFSQYLQSIAFQSIKSDLRGAKETLVGMELSGELRRTPNRELVAAGATQLHPELEPAKDTLSSESDSEPKGNNKETLHEKESQGSKTNLVALGAIALVVVAIIAGAVWRAGFSANPPQGSPPATPTRN	failed
VLIIPGGGYRRIVYEREGLDVGRWIAGQGYTAFILSYRMPSVNGYYSFADAKNALNFISYWAGMSERTFKSVGCMGFSAGGHLAGYITHLHYEEETSVRPDWMALIYPVISLDRSIAHQGCRKRLLDAGESEYSASLENSVTEYMPPVFIVHATDDKDVPVIHSLRYFNSIRDKGHHAEAHFFDKGGHGFGVSGKNGYPIEKWQSLLLEWLAEH	failed
MVTKILKAPDGSPSDVERIKKESDYLRGTLKEVMLDRISAGIPDDDNRLMKHHGSYLQDDRDLRNERQKQKLEPAYQFMLRVRMPGGVSTPEQWLVMDDLSQKYGNGTLKLTTRETFQMHGILKWNMKKTIQTIHSALLDTIAACGDVNRNVMCASNPYQSEIHSEVYEWSKKLSDDLLPRTRAYHEIWLDEERVAGTPEEEVEPMYGPLYLPRKFKIGIAVPPSNDIDVFSQDLGFIAIVEDGKLIGFNVAIGGGMGMTHGDTATYPQLAKVIGFCRPEQMYDVAEKTITIQRDYGNRSVRKNARFKYTVDRLGLENVKEELENRLGWSLEEAKPYHFDHNGDRYGWVEGIEDKWHFTLFVEGGRITDYDDYKLMTGLREIAKVHTGEFRLTANQNLMIANVSSDKKEEISALIEQYGLTDGKHYSALRRSSMACVALPTCGLAMAEAERYLPTLLDKIEEIIDENGLRDQEITIRMTGCPNGCARHALGEIGFIGKAPGKYNMYLGAAFDGSRLSKMYRENIGEADILSELRILLSRYAKEREEGEHFGDFVIRAGIIKATTDGTNFHD	failed
MKGSLIVIVFFCVGCIMGVFNKFQFDTHTVSMYILYALMLQVGISIGSNKNLKAIISHLHPKMLLIPLGTITGTLLFSALASILLSQWSVFDCMAVGSGFAYYSLSSILITQFKEPTIGIQLATELGTIALLTNIFREMMALLGTPLIKKYFGKLAPISAAGVNSMDVLLPSISRYSGKEMIPIAILHGILIDISVPVFVSFFCNL	failed
MAAFQIANKTVGKDAPVFIIAEAGINHDGKLDQAFALIDAAAEAGADAVKFQMFQADRMYQKDPGLYKTAAGKDVSIFSLVQSMEMPAEWILPLLDYCREKQVIFLSTVCDEGSADLLQSTSPSAFKIASYEINHLPLLKYVARLNRPMIFSTAGAEISDVHEAWRTIRAEGNNQIAIMHCVAKYPAPPEYSNLSVIPMLAAAFPEAVIGFSDHSEHPTEAPCAAVRLGAKLIEKHFTIDKNLPGADHSFALNPDELKEMVDGIRKTEAELKQGITKPVSEKLLGSSYKTTTAIEGEIRNFAYRGIFTTAPIQKGEAFSEDNIAVLRPGQKPQGLHPRFFELLTSGVRAVRDIPADTGIVWDDILLKDSPFHE	not failed
KAPLDEIADDSFWSDETLVKYYVNDLYSEISVDGLQLQENRSDNSVSAQRDKYRASWFKFNYDMVSASDPQDDDVWEDYYVKVRKCNRFFERIGTSTIEESEKSRLTGEVHFLRAMFYFEMVKRYGGVILLDKVLTMEDNWEIPRSSEKECYDFILEDLKKATEMLPASYGSREKGRATKGAAYALKSRVELYDKRYEDVIKSCAEVYKLGYELVDGTTPEKYRSIWWTTNKDNKEIIFDVQYKSPDVYNNMMVCNMVTYINDKYGDRGWGGLGPTQELIDAFEMADGTPATQYSQAPADQVFDINTCGIYEGREPRFYANIVFHGSQIFFNADKGAVTVDRYLMDTPDKGDGSLTGYNVWKWIDYDNYNYPYAGAGSPDFSTNWIILRYAEIYLNDAEARLETGDVEGARKAVNMIRQRVGLPDLTESDPEKLRELIRKERRIEFAFEEQRFYDVRRWKIGPETQTTLHGVRFVSPTEFKVTKTDIRTWNDRLYLTPVPHDEIVRSSVLKQNLGY	not failed
MRPGQELAGPGLRQPRTGVPRRRHRRLPRRHRPAIVSLPPSYGPSMPDAHPPPSPSKDRSFAARVQTGALVIIAFAVVLALLVQAQFILISLAVSVILFSLTSDAIALVARVRFGPVKIPNWLASSLALLLLAIVLLSLAAVIVSQVNTVLLTALSYSEQAPAAVAAIFSWLGKDAEEAVLSSLRAVEISGYLRTLAAQAGTLMQATVLVILFVGFLFAERVWFPVKLLNLFGNPDRARRVEEIVSSIMHRVNRYLLVKTLVSAITGLLVWGVAMAFGLDLAAPLGMLTFILNFIPSLGSIVATLLIVLVTFVQTVDVSTALSVLALVGVIQFICGNILDPMLMGRALQLSSFGIIISLAFWGAIWGIPGMFLSVPIMVGLMIVCAETEALRPIAVLLSREGLAAPMHPERPAAPPRAEPETETVASRRVGL	failed
RDRSTIARIQFRLPDGSSFTNQFPSDAPLEEARQFAAQTVGNTYGNFSLATMFPRREFTREDYKRRLLDLELAPSASVVLLPAGRPATSIVHSSSGDILMID	not failed
MRIIIVGGGKVGYQVARQCAAWGCDVVLVENDRQKGEKIKGELGLQVVIGDGTKAHFLKKAGAEEADIVVAVTDDDQDNLVICQLAERQFKAKRTLALVNNPGNEKLFRWLGVNQVIGPASLILGLIQERVDMDSTAAMWMQGIKDLKMIQFKLGPEAPVLGRKIKTIPFPNECILVTVVRENTAIVPCGNTVLEEGDLVFALANPAVQAELERVLTGKNDN	failed
MGREFLDLFEQWAESYDQSVEGYDEQYRDVFAGYDRILSTVADKAGQVVLEFGIGTGNLTKKLLERGKTVYGIEPSAPMRKKAAEKLGERAVIMDGDFLQFPLPPEPIDTIASTYAFHHLTDAEKDEAIAKYSQLLHSGGKIVFADTAFRDKEAFRQTVEAARARGFHDLADDLEREYYTTLDVLASLFANHGFSVSFAQQNAFVWVMEAVKQTTLEHHHHHH	not failed
IAKNNYKELIQNIIEESYTDSQFTLSVLSEKLDLSSGYLSIMFKKNFGIPFQDYLLQKRMEKAKLLLLTTELKNYEIAEQVGFEDVNYFITKFKKYYQITPKQYREMVLKNE	failed
IPELKDHLRIFRPRKLTLKGYRQHWVVFKETTLSYYKSQDEAPGDPIQQLNLKGCEVVPDVNVSGQKFCIKLLVPSPEGMSEIYLRCQDEQQYARWMAGCRLASKGRTMADSSYTSEVQAILAFLSLQRT	not failed
